Experimental data reported in publication PMC8131632 (2021).

B1: CB6/Junshi Fab-TD (Fab, V domains shown)
VH: EVQLVESGGGLVQPGGSLRLSCAASGFTVSSNYMSWVRQAPGKGLEWVSVIYSGGSTFYADSVKGRFTISRDNSMNTLFLQMNSLRAEDTAVYYCARVLPMYGDYLDYWGQGTLVTVSS
VL: not shown
B2: CB6/Junshi Ig-TD (antibody, V domains shown)
VH: B1 VH
VL: not shown
B3: CB6/Junshi mIg-TD (antibody, V domains shown)
VH: B1 VH
VL: not shown
B4: REGN10987 Fab-TD (Fab, V domains shown)
VH: QVQLVESGGGVVQPGRSLRLSCAASGFTFSNYAMYWVRQAPGKGLEWVAVISYDGSNKYYADSVKGRFTISRDNSKNTLYLQMNSLRTEDTAVYYCASGSDYGDYLLVYWGQGTLVTVSS
VL: QSALTQPASVSGSPGQSITISCTGTSSDVGGYNYVSWYQQHPGKAPKLMIYDVSKRPSGVSNRFSGSKSGNTASLTISGLQSEDEADYYCNSLTSISTWVFGGGTKLTVL
B5: REGN10987 mIg-TD (antibody, V domains shown)
VH: B4 VH
VL: B4 VL
B6: REGN10987 Ig-TD (antibody, V domains shown)
VH: B4 VH
VL: B4 VL
B7: REGN10933 Ig-TD (antibody, V domains shown)
VH: QVQLVESGGGLVKPGGSLRLSCAASGFTFSDYYMSWIRQAPGKGLEWVSYITYSGSTIYYADSVKGRFTISRDNAKSSLYLQMNSLRAEDTAVYYCARDRGTTMVPFDYWGQGTLVTVSS
VL: DIQMTQSPSSLSASVGDRVTITCQASQDITNYLNWYQQKPGKAPKLLIYAASNLETGVPSRFSGSGSGTDFTFTISGLQPEDIATYYCQQYDNLPLTFGGGTKVEIK
B8: REGN10933 Fab-TD (Fab, V domains shown)
VH: B7 VH
VL: B7 VL
B9: REGN10933 mIg-TD (antibody, V domains shown)
VH: B7 VH
VL: B7 VL
B10: REGN10933 IgG1 (antibody, V domains shown)
VH: B7 VH
VL: B7 VL

The binders below were run against SARS-CoV-2 spike receptor binding domain (RBD), Avi-tagged and biotinylated (SARS-CoV-2, UniProt P0DTC2 319-541, biotin (Avi tag, by BirA)) (assay: ELISA).

| Binder | IC50 |
| --- | --- |
| B1 | 0.03 nM |
| B2 | 0.1 nM |
| B3 | 0.29 nM |
| B4 | 0.02 nM |
| B5 | 0.4 nM |
| B6 | 0.12 nM |
| B7 | 0.045 nM |
| B8 | 0.012 nM |
| B9 | 0.18 nM |
| B10 | 1.45 nM |
